# Assay results: US20240368243A1
# Columns and labels:
# [1] = target: … (SEQ ID NO: 1)-HLA-A*02 complex presented on antigen positive cancer cells (human); experiment: cell-based or functional assay
# [2] = target: … (SEQ ID NO: 1)-HLA-A*02 complex (soluble, biotinylated) (human); experiment: SPR (BIAcore) or BLI (Octet) per Example 3, biotinylated pHLA immobilised, 25 C
Binder,"EC50 (mel624), IFN-γ ELISPOT, activation of redirected T cells [1]",Kd [2],t1/2 [2]
"ImmTAC molecule comprising a79 (SEQ ID NO: 7) and b64 (SEQ ID NO: 12) (TCR, part only; not given: anti-CD3 scFv, linker, TCR constants, part only) TCR alpha, part: GDAKTTQPNSMESNEEEPVHLPCNHSTISGTDYIHWYRQLPSQGPEYVIHGLTSNVNNRMASLAIAEDRKSSTLILHRATLRDAAVYYCILILGHSRLGNYIATFGKGTKLSVIP TCR beta, part: DGGITQSPKYLFRKEGQNVTLSCEQNLNHDAMYWYRQDPGQGLRLIYYSQIMNDEQKGDIAEGYSVSREKKESFPLTVTSAQKNPTAFYLCASSWWTGGSAPIRFGPGTRLTVT",0.0275 nM,0.138 nM,6.38 h
"ImmTAC molecule comprising a28 (SEQ ID NO: 6) and b58 (SEQ ID NO: 21) (TCR, part only; not given: anti-CD3 scFv, linker, TCR constants, part only) TCR alpha, part: GDAKTTQPNSMESNEEEPVHLPCNHSTISGTDYIHWYRQLPSQGPEYVIHGLTSNVNNRMASLAIAEDRKSSTLILHRATLRDAAVYYCILILGHSRAGNYIATFGKGTKLSVIP TCR beta, part: DGGITQSPKYLFRKEGQNVTLSCEQNLNHDAMYWYRQDPGQGLRLIYYSQIMGDEQKGDIAEGYSVSREKKESFPLTVTSAQKNPTAFYLCASSWWTGGSSPISFGPGTRLTVT",0.012 nM,0.079 nM,8.9 h
"ImmTAC molecule comprising a79 (SEQ ID NO: 7) and b76 (SEQ ID NO: 24) (TCR, part only; not given: anti-CD3 scFv, linker, TCR constants, part only) TCR alpha, part: GDAKTTQPNSMESNEEEPVHLPCNHSTISGTDYIHWYRQLPSQGPEYVIHGLTSNVNNRMASLAIAEDRKSSTLILHRATLRDAAVYYCILILGHSRLGNYIATFGKGTKLSVIP TCR beta, part: DGGITQSPKYLFRKEGQNVTLSCEQNLNHDAMYWYRQDPGQGLRLIYYSQIMGDEQKGDIAEGYSVSREKKESFPLTVTSAQKNPTAFYLCASSWWTGGSSPIRFGPGTRLTVT",0.0172 nM,0.0118 nM,58.3 h
"ImmTAC molecule comprising a79 (SEQ ID NO: 7) and b75 (SEQ ID NO: 20) (TCR, part only; not given: anti-CD3 scFv, linker, TCR constants, part only) TCR alpha, part: GDAKTTQPNSMESNEEEPVHLPCNHSTISGTDYIHWYRQLPSQGPEYVIHGLTSNVNNRMASLAIAEDRKSSTLILHRATLRDAAVYYCILILGHSRLGNYIATFGKGTKLSVIP TCR beta, part: DGGITQSPKYLFRKEGQNVTLSCEQNLNHDAMYWYRQDPGQGLRLIYYSQIMGDEQKGDIAEGYSVSREKKESFPLTVTSAQKNPTAFYLCASSWWTGGSAPISFGPGTRLTVT",0.0236 nM,0.0577 nM,16.9 h
"ImmTAC molecule comprising a79 (SEQ ID NO: 7) and b58 (SEQ ID NO: 21) (TCR, part only; not given: anti-CD3 scFv, linker, TCR constants, part only) TCR alpha, part: GDAKTTQPNSMESNEEEPVHLPCNHSTISGTDYIHWYRQLPSQGPEYVIHGLTSNVNNRMASLAIAEDRKSSTLILHRATLRDAAVYYCILILGHSRLGNYIATFGKGTKLSVIP TCR beta, part: DGGITQSPKYLFRKEGQNVTLSCEQNLNHDAMYWYRQDPGQGLRLIYYSQIMGDEQKGDIAEGYSVSREKKESFPLTVTSAQKNPTAFYLCASSWWTGGSSPISFGPGTRLTVT",0.0106 nM,0.0231 nM,28.7 h
"ImmTAC molecule comprising a28 (SEQ ID NO: 6) and b57 (SEQ ID NO: 10) (TCR, part only; not given: anti-CD3 scFv, linker, TCR constants, part only) TCR alpha, part: GDAKTTQPNSMESNEEEPVHLPCNHSTISGTDYIHWYRQLPSQGPEYVIHGLTSNVNNRMASLAIAEDRKSSTLILHRATLRDAAVYYCILILGHSRAGNYIATFGKGTKLSVIP TCR beta, part: DGGITQSPKYLFRKEGQNVTLSCEQNLNHDAMYWYRQDPGQGLRLIYYSQIMGDEQKGDIAEGYSVSREKKESFPLTVTSAQKNPTAFYLCASSWWTSGASPISFGPGTRLTVT",0.0134 nM,0.083 nM,8.3 h
"ImmTAC molecule comprising a79 (SEQ ID NO: 7) and b71 (SEQ ID NO: 15) (TCR, part only; not given: anti-CD3 scFv, linker, TCR constants, part only) TCR alpha, part: GDAKTTQPNSMESNEEEPVHLPCNHSTISGTDYIHWYRQLPSQGPEYVIHGLTSNVNNRMASLAIAEDRKSSTLILHRATLRDAAVYYCILILGHSRLGNYIATFGKGTKLSVIP TCR beta, part: DGGITQSPKYLFRKEGQNVTLSCEQNLNHDAMYWYRQDPGQGLRLIYYSQIMGDEQKGDIAEGYSVSREKKESFPLTVTSAQKNPTAFYLCASSWWTGGSAPIYFGPGTRLTVT",0.0318 nM,0.087 nM,14.9 h
"ImmTAC molecule comprising a79 (SEQ ID NO: 7) and b67 (SEQ ID NO: 13) (TCR, part only; not given: anti-CD3 scFv, linker, TCR constants, part only) TCR alpha, part: GDAKTTQPNSMESNEEEPVHLPCNHSTISGTDYIHWYRQLPSQGPEYVIHGLTSNVNNRMASLAIAEDRKSSTLILHRATLRDAAVYYCILILGHSRLGNYIATFGKGTKLSVIP TCR beta, part: DGGITQSPKYLFRKEGQNVTLSCEQNLNHDAMYWYRQDPGQGLRLIYYSQIMGDEQKGDIAEGYSVSREKKESFPLTVTSAQKNPTAFYLCASSWWTSGSAPIRFGPGTRLTVT",0.0263 nM,0.047 nM,12.7 h
"ImmTAC molecule comprising a79 (SEQ ID NO: 7) and b63 (SEQ ID NO: 22) (TCR, part only; not given: anti-CD3 scFv, linker, TCR constants, part only) TCR alpha, part: GDAKTTQPNSMESNEEEPVHLPCNHSTISGTDYIHWYRQLPSQGPEYVIHGLTSNVNNRMASLAIAEDRKSSTLILHRATLRDAAVYYCILILGHSRLGNYIATFGKGTKLSVIP TCR beta, part: DGGITQSPKYLFRKEGQNVTLSCEQNLNHDAMYWYRQDPGQGLRLIYYSQIVGDEQKGDIAEGYSVSREKKESFPLTVTSAQKNPTAFYLCASSWWTGGSAPIRFGPGTRLTVT",0.0229 nM,0.079 nM,10.8 h
"ImmTAC molecule comprising a79 (SEQ ID NO: 7) and b73 (SEQ ID NO: 16) (TCR, part only; not given: anti-CD3 scFv, linker, TCR constants, part only) TCR alpha, part: GDAKTTQPNSMESNEEEPVHLPCNHSTISGTDYIHWYRQLPSQGPEYVIHGLTSNVNNRMASLAIAEDRKSSTLILHRATLRDAAVYYCILILGHSRLGNYIATFGKGTKLSVIP TCR beta, part: DGGITQSPKYLFRKEGQNVTLSCEQNLNHDAMYWYRQDPGQGLRLIYYSQIMGDEQKGDIAEGYSVSREKKESFPLTVTSAQKNPTAFYLCASSWWTGGAAPISFGPGTRLTVT",0.0231 nM,0.132 nM,4.6 h
"ImmTAC molecule comprising a79 (SEQ ID NO: 7) and b77 (SEQ ID NO: 18) (TCR, part only; not given: anti-CD3 scFv, linker, TCR constants, part only) TCR alpha, part: GDAKTTQPNSMESNEEEPVHLPCNHSTISGTDYIHWYRQLPSQGPEYVIHGLTSNVNNRMASLAIAEDRKSSTLILHRATLRDAAVYYCILILGHSRLGNYIATFGKGTKLSVIP TCR beta, part: DGGITQSPKYLFRKEGQNVTLSCEQNLNHDAMYWYRQDPGQGLRLIYYSQIMGDEQKGDIAEGYSVSREKKESFPLTVTSAQKNPTAFYLCASSWWTGGAAPIRFGPGTRLTVT",0.0138 nM,0.0779 nM,8.6 h
"ImmTAC molecule comprising a79 (SEQ ID NO: 7) and b69 (SEQ ID NO: 14) (TCR, part only; not given: anti-CD3 scFv, linker, TCR constants, part only) TCR alpha, part: GDAKTTQPNSMESNEEEPVHLPCNHSTISGTDYIHWYRQLPSQGPEYVIHGLTSNVNNRMASLAIAEDRKSSTLILHRATLRDAAVYYCILILGHSRLGNYIATFGKGTKLSVIP TCR beta, part: DGGITQSPKYLFRKEGQNVTLSCEQNLNHDAMYWYRQDPGQGLRLIYYSQIMGDEQKGDIAEGYSVSREKKESFPLTVTSAQKNPTAFYLCASSWWTGGSAEIRFGPGTRLTVT",0.0398 nM,0.052 nM,20.4 h
"ImmTAC molecule comprising a109 (SEQ ID NO: 8) and b46 (SEQ ID NO: 11) (TCR, part only; not given: anti-CD3 scFv, linker, TCR constants, part only) TCR alpha, part: GDAKTTQPNSMESNEEEPVHLPCNHSTISGTDYIHWYRQLPSQGPEYVIHGLTSNVNNRMASLAIAEDRKSSTLILHRATLRDAAVYYCILILGHSRLGNYQATFGKGTKLSVIP TCR beta, part: DGGITQSPKYLFRKEGQNVTLSCEQNLNHDAMYWYRQDPGQGLRLIYYSQIMGDEQKGDIAEGYSVSREKKESFPLTVTSAQKNPTAFYLCASSWWTGGSAPIRFGPGTRLTVT",0.0601 nM,0.17 nM,7.31 h
"ImmTAC molecule comprising a79 (SEQ ID NO: 7) and b66 (SEQ ID NO: 23) (TCR, part only; not given: anti-CD3 scFv, linker, TCR constants, part only) TCR alpha, part: GDAKTTQPNSMESNEEEPVHLPCNHSTISGTDYIHWYRQLPSQGPEYVIHGLTSNVNNRMASLAIAEDRKSSTLILHRATLRDAAVYYCILILGHSRLGNYIATFGKGTKLSVIP TCR beta, part: DGGITQSPKYLFRKEGQNVTLSCEQNLNHDAMYWYRQDPGQGLRLIYYSQIMGDEQKGDIAEGYSVSREKKESFPLTVTSAQKNPTAFYLCASSPWTGGSAPIRFGPGTRLTVT",0.0167 nM,0.089 nM,9.16 h
"ImmTAC molecule comprising a28 (SEQ ID NO: 6) and b60 (SEQ ID NO: 19) (TCR, part only; not given: anti-CD3 scFv, linker, TCR constants, part only) TCR alpha, part: GDAKTTQPNSMESNEEEPVHLPCNHSTISGTDYIHWYRQLPSQGPEYVIHGLTSNVNNRMASLAIAEDRKSSTLILHRATLRDAAVYYCILILGHSRAGNYIATFGKGTKLSVIP TCR beta, part: DGGITQSPKYLFRKEGQNVTLSCEQNLNHDAMYWYRQDPGQGLRLIYYSQIMGDEQKGDIAEGYSVSREKKESFPLTVTSAQKNPTAFYLCASSWWTGGASEISFGPGTRLTVT",0.0317 nM,0.261 nM,2.8 h
"ImmTAC molecule comprising a28 (SEQ ID NO: 6) and b74 (SEQ ID NO: 17) (TCR, part only; not given: anti-CD3 scFv, linker, TCR constants, part only) TCR alpha, part: GDAKTTQPNSMESNEEEPVHLPCNHSTISGTDYIHWYRQLPSQGPEYVIHGLTSNVNNRMASLAIAEDRKSSTLILHRATLRDAAVYYCILILGHSRAGNYIATFGKGTKLSVIP TCR beta, part: DGGITQSPKYLFRKEGQNVTLSCEQNLNHDAMYWYRQDPGQGLRLIYYSQIMGDEQKGDIAEGYSVSREKKESFPLTVTSAQKNPTAFYLCASSWWTGGASPIRFGPGTRLTVT",0.0243 nM,0.182 nM,3.7 h
"ImmTAC molecule comprising a28 (SEQ ID NO: 6) and b75 (SEQ ID NO: 20) (TCR, part only; not given: anti-CD3 scFv, linker, TCR constants, part only) TCR alpha, part: GDAKTTQPNSMESNEEEPVHLPCNHSTISGTDYIHWYRQLPSQGPEYVIHGLTSNVNNRMASLAIAEDRKSSTLILHRATLRDAAVYYCILILGHSRAGNYIATFGKGTKLSVIP TCR beta, part: DGGITQSPKYLFRKEGQNVTLSCEQNLNHDAMYWYRQDPGQGLRLIYYSQIMGDEQKGDIAEGYSVSREKKESFPLTVTSAQKNPTAFYLCASSWWTGGSAPISFGPGTRLTVT",0.0139 nM,0.214 nM,5.1 h
